# Article PMC3573756
# pKd: −log10 of the molar value.
# Assays:
# [1] = target: cardiac ryanodine receptor (RyR2) (rat (endogenous in rat ventricular myocytes)) (UniProt B0LPN4); test: other fluorescence titration
# [2] = target: cardiac ryanodine receptor (RyR2) (rat (endogenous in rat ventricular myocytes)) (UniProt B0LPN4); test: confocal fluorescence wash-in and wash-out kinetics
# [3] = target: cardiac ryanodine receptor (RyR2) (rat (endogenous in rat ventricular myocytes)) (UniProt B0LPN4); test: FRET or BRET
# [4] = target: cardiac ryanodine receptor (RyR2) (rat (endogenous in rat ventricular myocytes)) (UniProt B0LPN4); test: FRET or BRET; remark: listed apart in the source
# Chain of UniProt B0LPN4 (B0LPN4 whole entry): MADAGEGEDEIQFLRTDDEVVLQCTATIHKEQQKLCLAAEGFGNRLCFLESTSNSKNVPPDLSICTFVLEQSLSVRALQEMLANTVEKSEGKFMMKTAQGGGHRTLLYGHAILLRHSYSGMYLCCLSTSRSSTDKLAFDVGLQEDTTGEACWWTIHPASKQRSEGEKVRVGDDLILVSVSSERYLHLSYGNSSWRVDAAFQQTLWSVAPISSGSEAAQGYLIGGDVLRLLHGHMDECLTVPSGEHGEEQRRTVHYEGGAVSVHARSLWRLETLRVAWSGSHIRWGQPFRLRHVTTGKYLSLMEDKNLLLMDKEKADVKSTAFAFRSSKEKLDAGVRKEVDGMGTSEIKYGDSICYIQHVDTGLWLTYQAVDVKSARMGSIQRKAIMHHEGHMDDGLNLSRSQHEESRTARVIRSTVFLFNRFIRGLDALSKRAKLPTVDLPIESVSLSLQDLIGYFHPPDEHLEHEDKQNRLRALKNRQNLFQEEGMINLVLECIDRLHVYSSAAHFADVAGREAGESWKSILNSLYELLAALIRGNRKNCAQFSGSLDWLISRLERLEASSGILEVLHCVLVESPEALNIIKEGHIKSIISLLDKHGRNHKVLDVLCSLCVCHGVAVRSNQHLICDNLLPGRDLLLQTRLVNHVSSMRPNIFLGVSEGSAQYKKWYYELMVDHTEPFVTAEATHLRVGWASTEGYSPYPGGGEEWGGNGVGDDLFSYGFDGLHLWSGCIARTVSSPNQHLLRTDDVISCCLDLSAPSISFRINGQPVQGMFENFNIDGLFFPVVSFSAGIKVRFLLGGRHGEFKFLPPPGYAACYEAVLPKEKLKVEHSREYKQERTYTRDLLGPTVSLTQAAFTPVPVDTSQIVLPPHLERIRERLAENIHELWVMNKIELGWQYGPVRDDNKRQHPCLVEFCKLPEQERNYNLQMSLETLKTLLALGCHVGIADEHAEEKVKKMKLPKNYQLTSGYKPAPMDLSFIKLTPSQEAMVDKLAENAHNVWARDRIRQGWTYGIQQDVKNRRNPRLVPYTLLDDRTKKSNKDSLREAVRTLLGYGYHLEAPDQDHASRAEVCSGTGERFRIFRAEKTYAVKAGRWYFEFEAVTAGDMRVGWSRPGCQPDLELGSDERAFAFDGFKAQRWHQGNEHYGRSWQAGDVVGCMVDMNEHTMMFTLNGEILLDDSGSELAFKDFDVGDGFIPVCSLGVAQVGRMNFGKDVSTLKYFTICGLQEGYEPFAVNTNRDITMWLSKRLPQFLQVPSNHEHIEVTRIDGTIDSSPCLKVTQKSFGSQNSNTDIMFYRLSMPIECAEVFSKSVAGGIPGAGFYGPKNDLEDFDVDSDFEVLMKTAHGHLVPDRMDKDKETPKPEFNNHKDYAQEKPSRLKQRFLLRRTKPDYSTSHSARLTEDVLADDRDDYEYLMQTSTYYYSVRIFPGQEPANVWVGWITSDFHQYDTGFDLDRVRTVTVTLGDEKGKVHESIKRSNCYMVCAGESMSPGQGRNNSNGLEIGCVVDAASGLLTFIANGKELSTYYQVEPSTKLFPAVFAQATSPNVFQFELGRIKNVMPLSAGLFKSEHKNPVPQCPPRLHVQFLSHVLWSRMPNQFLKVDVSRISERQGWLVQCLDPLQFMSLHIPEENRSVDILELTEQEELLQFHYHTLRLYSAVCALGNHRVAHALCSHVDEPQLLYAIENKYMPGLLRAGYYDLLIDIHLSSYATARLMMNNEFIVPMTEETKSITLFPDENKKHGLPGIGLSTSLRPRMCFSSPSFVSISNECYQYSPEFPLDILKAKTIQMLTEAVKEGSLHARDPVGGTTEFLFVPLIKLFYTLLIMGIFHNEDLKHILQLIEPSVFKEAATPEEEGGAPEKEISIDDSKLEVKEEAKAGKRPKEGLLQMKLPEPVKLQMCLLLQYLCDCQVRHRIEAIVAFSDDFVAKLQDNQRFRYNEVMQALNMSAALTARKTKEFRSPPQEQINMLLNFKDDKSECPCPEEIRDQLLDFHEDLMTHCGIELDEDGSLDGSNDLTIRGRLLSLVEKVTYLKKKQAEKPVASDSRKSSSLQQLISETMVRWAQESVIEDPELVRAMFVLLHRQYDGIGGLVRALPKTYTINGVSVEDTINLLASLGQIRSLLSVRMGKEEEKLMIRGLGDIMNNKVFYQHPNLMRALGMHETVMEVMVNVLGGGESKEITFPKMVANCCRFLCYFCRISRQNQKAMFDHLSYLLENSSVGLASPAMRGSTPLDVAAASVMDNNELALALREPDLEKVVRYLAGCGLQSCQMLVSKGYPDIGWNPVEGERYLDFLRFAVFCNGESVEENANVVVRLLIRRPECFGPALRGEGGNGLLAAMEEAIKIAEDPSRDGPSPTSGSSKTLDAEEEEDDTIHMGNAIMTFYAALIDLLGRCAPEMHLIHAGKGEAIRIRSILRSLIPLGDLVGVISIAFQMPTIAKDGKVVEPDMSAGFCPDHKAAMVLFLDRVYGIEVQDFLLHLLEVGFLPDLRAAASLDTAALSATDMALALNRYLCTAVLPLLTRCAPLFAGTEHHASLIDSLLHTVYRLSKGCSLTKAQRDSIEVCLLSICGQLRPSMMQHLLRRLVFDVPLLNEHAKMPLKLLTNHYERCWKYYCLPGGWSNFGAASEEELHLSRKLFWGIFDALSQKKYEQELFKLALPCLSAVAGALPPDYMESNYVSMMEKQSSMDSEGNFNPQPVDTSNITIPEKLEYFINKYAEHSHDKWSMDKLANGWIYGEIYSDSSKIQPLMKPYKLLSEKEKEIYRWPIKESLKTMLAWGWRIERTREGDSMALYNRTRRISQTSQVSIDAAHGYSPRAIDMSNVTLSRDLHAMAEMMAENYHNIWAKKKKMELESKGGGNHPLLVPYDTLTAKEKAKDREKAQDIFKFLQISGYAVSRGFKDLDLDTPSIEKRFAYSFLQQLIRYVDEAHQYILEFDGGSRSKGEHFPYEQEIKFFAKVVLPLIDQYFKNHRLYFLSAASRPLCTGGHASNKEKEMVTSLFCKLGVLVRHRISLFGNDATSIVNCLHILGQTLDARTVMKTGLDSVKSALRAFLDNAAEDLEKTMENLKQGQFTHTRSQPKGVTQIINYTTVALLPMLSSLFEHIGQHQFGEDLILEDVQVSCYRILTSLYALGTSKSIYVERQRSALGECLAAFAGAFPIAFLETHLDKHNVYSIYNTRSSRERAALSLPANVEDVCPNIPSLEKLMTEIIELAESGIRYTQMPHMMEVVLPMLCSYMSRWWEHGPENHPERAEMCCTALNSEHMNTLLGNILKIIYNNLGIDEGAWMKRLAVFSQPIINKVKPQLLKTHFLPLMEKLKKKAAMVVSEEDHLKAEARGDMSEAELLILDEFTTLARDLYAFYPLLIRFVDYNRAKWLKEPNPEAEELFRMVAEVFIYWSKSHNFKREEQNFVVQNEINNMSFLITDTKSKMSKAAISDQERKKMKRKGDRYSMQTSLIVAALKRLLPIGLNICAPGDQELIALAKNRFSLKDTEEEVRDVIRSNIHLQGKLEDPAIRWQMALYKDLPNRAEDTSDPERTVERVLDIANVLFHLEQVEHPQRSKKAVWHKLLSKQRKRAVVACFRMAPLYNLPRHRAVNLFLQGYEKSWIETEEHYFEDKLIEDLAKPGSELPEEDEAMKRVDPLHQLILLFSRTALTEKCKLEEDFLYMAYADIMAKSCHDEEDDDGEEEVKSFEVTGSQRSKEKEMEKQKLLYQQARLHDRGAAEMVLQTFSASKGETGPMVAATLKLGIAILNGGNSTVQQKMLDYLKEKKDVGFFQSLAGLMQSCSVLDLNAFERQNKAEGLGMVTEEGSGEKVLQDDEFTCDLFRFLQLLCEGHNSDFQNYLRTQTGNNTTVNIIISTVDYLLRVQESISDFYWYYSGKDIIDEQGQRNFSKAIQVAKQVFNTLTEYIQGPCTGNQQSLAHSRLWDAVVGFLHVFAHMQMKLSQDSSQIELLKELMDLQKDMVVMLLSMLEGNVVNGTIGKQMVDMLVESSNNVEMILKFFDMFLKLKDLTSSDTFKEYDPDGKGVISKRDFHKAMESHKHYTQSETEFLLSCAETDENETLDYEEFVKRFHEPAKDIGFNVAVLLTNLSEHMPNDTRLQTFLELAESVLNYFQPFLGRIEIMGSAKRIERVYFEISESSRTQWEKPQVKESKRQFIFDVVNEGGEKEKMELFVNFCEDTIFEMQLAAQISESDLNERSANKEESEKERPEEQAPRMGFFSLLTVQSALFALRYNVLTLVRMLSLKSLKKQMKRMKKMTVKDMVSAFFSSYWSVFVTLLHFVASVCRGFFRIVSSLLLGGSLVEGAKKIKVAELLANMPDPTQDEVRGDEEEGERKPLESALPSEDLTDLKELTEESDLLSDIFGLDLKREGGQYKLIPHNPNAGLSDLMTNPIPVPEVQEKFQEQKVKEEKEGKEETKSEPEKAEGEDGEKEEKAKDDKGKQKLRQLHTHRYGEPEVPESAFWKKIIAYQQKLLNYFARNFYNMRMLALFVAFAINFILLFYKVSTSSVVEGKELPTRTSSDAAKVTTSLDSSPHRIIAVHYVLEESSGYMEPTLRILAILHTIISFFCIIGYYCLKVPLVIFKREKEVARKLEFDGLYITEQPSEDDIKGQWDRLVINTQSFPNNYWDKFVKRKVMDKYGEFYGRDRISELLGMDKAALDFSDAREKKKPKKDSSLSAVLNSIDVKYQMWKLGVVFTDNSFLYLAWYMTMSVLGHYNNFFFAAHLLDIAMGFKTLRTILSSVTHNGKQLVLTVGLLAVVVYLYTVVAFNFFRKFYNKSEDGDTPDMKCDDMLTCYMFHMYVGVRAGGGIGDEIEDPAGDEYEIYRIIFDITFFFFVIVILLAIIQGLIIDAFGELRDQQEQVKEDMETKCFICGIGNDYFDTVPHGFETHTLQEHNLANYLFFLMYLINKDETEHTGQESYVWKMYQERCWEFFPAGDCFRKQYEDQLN
Substance,pKd [1],stoichiometry N (DPc10 per RyR2 monomer) [1],fold faster association after pre-saturation with NF-DPc10 against control [2] [fold],percent faster τ (wash-in) with ryanodine plus caffeine against control [2] [%],pKd [3],pKd [4]
DPc10 labeled with 5-carboxyfluorescein at its N-terminus (F-DPc10) (peptide),6.32,1,2,21,–,–
DPc10 labeled with HiLyte Fluor 647 on the N-terminus (HF647-DPc10) (peptide),–,–,–,–,6.35,6.21
